Measured values as given in US20140087995A1 (published 2014).
Numbered stars: 1 amine (or outer) side, 2 acyl side, 3 side chain; on linkers, the order of the positions; unused ones are H or OH. Bridge positions count the residues as written; N and C are the ends. Side chains are listed from the residue outwards. Ends that are not written are not given here. * marks the point of attachment. C20 diacid = O=C(O)CCCCCCCCCCCCCCCCCCC(=O)*; γGlu = O=C(O)[C@H](CCC(=O)[*:2])N[*:1]; AEEA = NCCOCCOCC(=O)O

T1: human amylin receptor (amylin 3(a) receptor: human calcitonin receptor plus RAMP-3) (human, UniProt P30988 25-474; O60896 24-148, limits assumed)
T1 sequence (looked up) 1: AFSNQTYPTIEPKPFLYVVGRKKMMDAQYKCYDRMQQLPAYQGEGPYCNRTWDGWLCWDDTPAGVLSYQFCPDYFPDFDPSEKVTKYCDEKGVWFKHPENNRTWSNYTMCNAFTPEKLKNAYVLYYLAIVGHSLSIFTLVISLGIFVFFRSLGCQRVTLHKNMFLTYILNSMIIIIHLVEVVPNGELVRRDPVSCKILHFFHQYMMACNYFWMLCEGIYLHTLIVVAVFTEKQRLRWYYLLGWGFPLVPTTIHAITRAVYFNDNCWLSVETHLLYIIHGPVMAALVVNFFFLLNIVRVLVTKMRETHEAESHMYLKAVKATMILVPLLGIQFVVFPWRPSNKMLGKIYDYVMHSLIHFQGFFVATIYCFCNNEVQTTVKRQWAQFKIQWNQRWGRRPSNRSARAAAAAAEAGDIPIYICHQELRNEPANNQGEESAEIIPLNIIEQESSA
T1 sequence (looked up) 2: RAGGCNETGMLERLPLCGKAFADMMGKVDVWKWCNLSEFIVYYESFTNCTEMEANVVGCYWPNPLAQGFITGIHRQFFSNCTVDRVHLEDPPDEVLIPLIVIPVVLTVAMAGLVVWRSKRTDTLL

T2: human calcitonin receptor (human, UniProt P30988 25-474)
T2 sequence (looked up): T1 sequence (looked up) 1

B1: N^α1-[2-[2-[2-[[2-[2-[2-[[(4S)-4-carboxy-4-(19-carboxynonadecanoylamino)butanoyl]amino]ethoxy]ethoxy]acetyl]amino]ethoxy]ethoxy]acetyl]-[Glu14,Arg17,Pro21,Pro27 … (peptide)
peptide: KCNTATCATQRLAEFLRHSSPNFGAIPSSTNVGSNTY
modifications: C20 diacid-gGlu-2xOEG on the alpha amino group of the N-terminal residue; Cys2-Cys7 disulfide and C-terminal amide as in human amylin
notes: also called compound 19
B2: N{Alpha-1}-[(4S)-4-carboxy-4-(19-carboxynonadecanoylamino)butanoyl]-[Glu14,Arg17,Pro21,Pro27,Lys34]-h-amylin (peptide)
peptide: {C20 diacid-γGlu}-KCNTATCATQRLAEFLRHSSPNFGAIPSSTNVGKNTY-NH2
modifications: disulfide 2-7
SMILES: CC[C@H](C)[C@H](NC(=O)[C@H](C)NC(=O)CNC(=O)[C@H](Cc1ccccc1)NC(=O)[C@H](CC(N)=O)NC(=O)[C@@H]1CCCN1C(=O)[C@H](CO)NC(=O)[C@H](CO)NC(=O)[C@H](Cc1c[nH]cn1)NC(=O)[C@H](CCCNC(=N)N)NC(=O)[C@H](CC(C)C)NC(=O)[C@H](Cc1ccccc1)NC(=O)[C@H](CCC(=O)O)NC(=O)[C@H](C)NC(=O)[C@H](CC(C)C)NC(=O)[C@H](CCCNC(=N)N)NC(=O)[C@H](CCC(N)=O)NC(=O)[C@@H](NC(=O)[C@H](C)NC(=O)[C@@H]1CSSC[C@H](NC(=O)[C@H](CCCCN)NC(=O)CC[C@H](NC(=O)CCCCCCCCCCCCCCCCCCC(=O)O)C(=O)O)C(=O)N[C@@H](CC(N)=O)C(=O)N[C@@H]([C@@H](C)O)C(=O)N[C@@H](C)C(=O)N[C@@H]([C@@H](C)O)C(=O)N1)[C@@H](C)O)C(=O)N1CCC[C@H]1C(=O)N[C@@H](CO)C(=O)N[C@@H](CO)C(=O)N[C@H](C(=O)N[C@@H](CC(N)=O)C(=O)N[C@H](C(=O)NCC(=O)N[C@@H](CCCCN)C(=O)N[C@@H](CC(N)=O)C(=O)N[C@H](C(=O)N[C@@H](Cc1ccc(O)cc1)C(N)=O)[C@@H](C)O)C(C)C)[C@@H](C)O
notes: also called compound 36
B3: N^ε-[2-[2-[2-[[(4S)-4-carboxy-4-(19-carboxynonadecanoylamino)butanoyl]amino]ethoxy]ethoxy]acetyl]Lys[Arg1,Arg17,Pro21,Pro27,His35]-h-amylin (peptide)
peptide: K([AEEA-γGlu-C20 diacid])RCNTATCATQRLANFLRHSSPNFGAIPSSTNVGSHTY-NH2
modifications: disulfide 3-8; N-terminus assumed
SMILES: CC[C@H](C)[C@H](NC(=O)[C@H](C)NC(=O)CNC(=O)[C@H](Cc1ccccc1)NC(=O)[C@H](CC(N)=O)NC(=O)[C@@H]1CCCN1C(=O)[C@H](CO)NC(=O)[C@H](CO)NC(=O)[C@H](Cc1c[nH]cn1)NC(=O)[C@H](CCCNC(=N)N)NC(=O)[C@H](CC(C)C)NC(=O)[C@H](Cc1ccccc1)NC(=O)[C@H](CC(N)=O)NC(=O)[C@H](C)NC(=O)[C@H](CC(C)C)NC(=O)[C@H](CCCNC(=N)N)NC(=O)[C@H](CCC(N)=O)NC(=O)[C@@H](NC(=O)[C@H](C)NC(=O)[C@@H]1CSSC[C@H](NC(=O)[C@H](CCCNC(=N)N)NC(=O)[C@@H](N)CCCCNC(=O)COCCOCCNC(=O)CC[C@H](NC(=O)CCCCCCCCCCCCCCCCCCC(=O)O)C(=O)O)C(=O)N[C@@H](CC(N)=O)C(=O)N[C@@H]([C@@H](C)O)C(=O)N[C@@H](C)C(=O)N[C@@H]([C@@H](C)O)C(=O)N1)[C@@H](C)O)C(=O)N1CCC[C@H]1C(=O)N[C@@H](CO)C(=O)N[C@@H](CO)C(=O)N[C@H](C(=O)N[C@@H](CC(N)=O)C(=O)N[C@H](C(=O)NCC(=O)N[C@@H](CO)C(=O)N[C@@H](Cc1c[nH]cn1)C(=O)N[C@H](C(=O)N[C@@H](Cc1ccc(O)cc1)C(N)=O)[C@@H](C)O)C(C)C)[C@@H](C)O
notes: also called compound 45
B4: N^ε-[(4S)-4-carboxy-4-(19-carboxynonadecanoylamino)butanoyl]Lys[Arg1,Arg17,Pro21,Pro27,His35]-h-amylin (peptide)
peptide: K([γGlu-C20 diacid])RCNTATCATQRLANFLRHSSPNFGAIPSSTNVGSHTY-NH2
modifications: disulfide 3-8; N-terminus assumed
SMILES: CC[C@H](C)[C@H](NC(=O)[C@H](C)NC(=O)CNC(=O)[C@H](Cc1ccccc1)NC(=O)[C@H](CC(N)=O)NC(=O)[C@@H]1CCCN1C(=O)[C@H](CO)NC(=O)[C@H](CO)NC(=O)[C@H](Cc1c[nH]cn1)NC(=O)[C@H](CCCNC(=N)N)NC(=O)[C@H](CC(C)C)NC(=O)[C@H](Cc1ccccc1)NC(=O)[C@H](CC(N)=O)NC(=O)[C@H](C)NC(=O)[C@H](CC(C)C)NC(=O)[C@H](CCCNC(=N)N)NC(=O)[C@H](CCC(N)=O)NC(=O)[C@@H](NC(=O)[C@H](C)NC(=O)[C@@H]1CSSC[C@H](NC(=O)[C@H](CCCNC(=N)N)NC(=O)[C@@H](N)CCCCNC(=O)CC[C@H](NC(=O)CCCCCCCCCCCCCCCCCCC(=O)O)C(=O)O)C(=O)N[C@@H](CC(N)=O)C(=O)N[C@@H]([C@@H](C)O)C(=O)N[C@@H](C)C(=O)N[C@@H]([C@@H](C)O)C(=O)N1)[C@@H](C)O)C(=O)N1CCC[C@H]1C(=O)N[C@@H](CO)C(=O)N[C@@H](CO)C(=O)N[C@H](C(=O)N[C@@H](CC(N)=O)C(=O)N[C@H](C(=O)NCC(=O)N[C@@H](CO)C(=O)N[C@@H](Cc1c[nH]cn1)C(=O)N[C@H](C(=O)N[C@@H](Cc1ccc(O)cc1)C(N)=O)[C@@H](C)O)C(C)C)[C@@H](C)O
notes: also called compound 44
B5: N^-1-[(4S)-4-carboxy-4-(19-carboxynonadecanoylamino)butanoyl]-Gly[Arg1,Arg17,Pro21,Pro27]-h-amylin (peptide)
peptide: {C20 diacid-γGlu}-GRCNTATCATQRLANFLRHSSPNFGAIPSSTNVGSNTY-NH2
modifications: disulfide 3-8
SMILES: CC[C@H](C)[C@H](NC(=O)[C@H](C)NC(=O)CNC(=O)[C@H](Cc1ccccc1)NC(=O)[C@H](CC(N)=O)NC(=O)[C@@H]1CCCN1C(=O)[C@H](CO)NC(=O)[C@H](CO)NC(=O)[C@H](Cc1c[nH]cn1)NC(=O)[C@H](CCCNC(=N)N)NC(=O)[C@H](CC(C)C)NC(=O)[C@H](Cc1ccccc1)NC(=O)[C@H](CC(N)=O)NC(=O)[C@H](C)NC(=O)[C@H](CC(C)C)NC(=O)[C@H](CCCNC(=N)N)NC(=O)[C@H](CCC(N)=O)NC(=O)[C@@H](NC(=O)[C@H](C)NC(=O)[C@@H]1CSSC[C@H](NC(=O)[C@H](CCCNC(=N)N)NC(=O)CNC(=O)CC[C@H](NC(=O)CCCCCCCCCCCCCCCCCCC(=O)O)C(=O)O)C(=O)N[C@@H](CC(N)=O)C(=O)N[C@@H]([C@@H](C)O)C(=O)N[C@@H](C)C(=O)N[C@@H]([C@@H](C)O)C(=O)N1)[C@@H](C)O)C(=O)N1CCC[C@H]1C(=O)N[C@@H](CO)C(=O)N[C@@H](CO)C(=O)N[C@H](C(=O)N[C@@H](CC(N)=O)C(=O)N[C@H](C(=O)NCC(=O)N[C@@H](CO)C(=O)N[C@@H](CC(N)=O)C(=O)N[C@H](C(=O)N[C@@H](Cc1ccc(O)cc1)C(N)=O)[C@@H](C)O)C(C)C)[C@@H](C)O
notes: also called compound 46

Biological target: T1, human amylin receptor (amylin 3(a) …)
Assay: cell-based or functional assay

Compared with B1, B2 is 1.6-fold lower in “hAmylin-R funct. EC50” value: 0.307 nM for the first, 0.189 nM for the second.

First: B3
Second: B4
The “hAmylin-R funct. EC50” value of the first is 3-fold higher: 0.594 nM for the first, 0.198 nM for the second.

With B5 the “hAmylin-R funct. EC50” value was 0.088 nM.

Biological target: T2, human calcitonin receptor
Assay: cell-based or functional assay

Going from B1 to B2, the “Ratio hCT/hAmylin funct. (hCTR EC50 against hAmylin-R EC50)” value falls from 17.4 to 6.8.

First: B3
Second: B4
The “Ratio hCT/hAmylin funct. (hCTR EC50 against hAmylin-R EC50)” value of the first is lower: 17 for the first, 24 for the second.

With B5 the “Ratio hCT/hAmylin funct. (hCTR EC50 against hAmylin-R EC50)” value was 10.2.

First: B1
Second: B2
The “hCTR funct. EC50” value of the first is 4.2-fold higher: 5.32 nM for the first, 1.28 nM for the second.

Going from B3 to B4, the “hCTR funct. EC50” value falls from 10.1 nM to 4.75 nM (2.1-fold).

With B5 the “hCTR funct. EC50” value was 0.899 nM.
